One may read the EC50 as the concentration needed to bring the measured effect to its halfway point. A higher EC50 goes with a less potent agent.

In one assay the target is FcγRIIb (UniProt P31994). The experiment in a line: MSD assay, Fcγ receptor coated.
For a further assay, the target named is FcγRI (UniProt P12314). The experiment in a line: MSD assay, Fcγ receptor coated.
The next assay addresses FcγRIIIa(F) (UniProt P08637). The experiment in a line: MSD assay, Fcγ receptor coated.
The target of another assay is FcγRIIIa(V) (UniProt P08637). The assay is described as follows: MSD assay, Fcγ receptor coated.
A further assay deals with FcγRIIa(H) (UniProt P12318). The experiment in a line: MSD assay, Fcγ receptor coated.
A further assay deals with Human C1q (human) (UniProt P02745). The experiment in a line: ELISA, antibody coated, human C1q added. Background: In an ELISA, binding on a coated surface is turned into a signal by an enzyme label.
Human C1q (human), sequence (P02745 23-245 limits assumed, chain 1 of 3): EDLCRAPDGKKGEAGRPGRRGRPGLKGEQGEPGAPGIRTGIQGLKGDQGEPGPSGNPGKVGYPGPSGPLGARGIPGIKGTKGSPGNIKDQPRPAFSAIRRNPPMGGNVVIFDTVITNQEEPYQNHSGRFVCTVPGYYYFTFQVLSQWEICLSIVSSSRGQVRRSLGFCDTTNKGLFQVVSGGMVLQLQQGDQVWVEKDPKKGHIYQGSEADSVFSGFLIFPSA
Human C1q (human), sequence (P02746 28-253 limits assumed, chain 2 of 3, further chain): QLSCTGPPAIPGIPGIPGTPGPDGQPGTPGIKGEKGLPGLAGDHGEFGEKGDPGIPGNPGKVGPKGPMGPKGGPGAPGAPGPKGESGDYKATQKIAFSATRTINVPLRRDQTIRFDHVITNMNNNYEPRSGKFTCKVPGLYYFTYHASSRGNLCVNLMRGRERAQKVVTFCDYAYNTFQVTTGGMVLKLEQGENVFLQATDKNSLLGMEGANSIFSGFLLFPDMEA
Human C1q (human), sequence (P02747 29-245 limits assumed, chain 3 of 3, further chain): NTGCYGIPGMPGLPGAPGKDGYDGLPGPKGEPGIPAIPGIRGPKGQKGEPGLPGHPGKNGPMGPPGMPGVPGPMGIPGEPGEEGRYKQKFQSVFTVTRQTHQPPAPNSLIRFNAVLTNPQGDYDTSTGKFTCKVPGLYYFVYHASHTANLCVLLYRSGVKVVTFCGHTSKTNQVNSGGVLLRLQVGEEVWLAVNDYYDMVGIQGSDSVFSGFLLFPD

FcγRIIa(H), sequence (P12318 36-218 limits assumed): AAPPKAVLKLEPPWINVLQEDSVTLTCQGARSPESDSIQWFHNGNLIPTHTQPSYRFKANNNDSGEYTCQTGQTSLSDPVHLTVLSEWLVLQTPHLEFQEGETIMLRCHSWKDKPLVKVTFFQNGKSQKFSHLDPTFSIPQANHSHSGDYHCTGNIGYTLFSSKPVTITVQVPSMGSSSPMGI
FcγRI, sequence (P12314 16-288 limits assumed): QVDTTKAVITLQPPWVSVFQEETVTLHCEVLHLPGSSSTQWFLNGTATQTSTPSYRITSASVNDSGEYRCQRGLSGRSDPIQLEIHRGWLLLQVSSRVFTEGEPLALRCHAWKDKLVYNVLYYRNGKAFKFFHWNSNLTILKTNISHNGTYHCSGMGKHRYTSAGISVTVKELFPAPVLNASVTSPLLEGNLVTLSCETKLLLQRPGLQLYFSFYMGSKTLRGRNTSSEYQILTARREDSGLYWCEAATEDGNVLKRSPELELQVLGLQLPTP
FcγRIIIa(F), sequence (P08637 17-208 limits assumed): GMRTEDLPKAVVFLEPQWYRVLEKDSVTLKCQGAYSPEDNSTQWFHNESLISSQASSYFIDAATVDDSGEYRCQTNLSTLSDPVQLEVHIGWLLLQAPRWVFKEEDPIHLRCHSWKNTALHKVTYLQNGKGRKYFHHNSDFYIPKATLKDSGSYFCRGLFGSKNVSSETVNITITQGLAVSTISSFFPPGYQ
FcγRIIb, sequence (P31994 43-217 limits assumed): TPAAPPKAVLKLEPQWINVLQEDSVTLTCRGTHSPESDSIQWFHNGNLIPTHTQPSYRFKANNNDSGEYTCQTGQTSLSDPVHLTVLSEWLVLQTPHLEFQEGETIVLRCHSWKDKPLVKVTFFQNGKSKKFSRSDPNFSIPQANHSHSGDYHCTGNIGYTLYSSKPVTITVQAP
FcγRIIIa(V), sequence (P08637 17-208 F176V limits assumed): as the sequence (P08637 17-208 limits assumed) above, with F160V counted along it

For the substance “Positive Control IgG1 (Intact Fc receptor effector functionality) (antibody)”, the EC50 in the assay with FcγRIIb was over 134 nM; with FcγRI it was 0.8 nM; with FcγRIIIa(F), 19 nM; in the assay with FcγRIIIa(V), 6.2 nM; with FcγRIIa(H), 93.7 nM; with Human C1q (human) it was 8.9 nM.

The values are drawn from patent US20210054088A1.
